# In patent US20090186027A1:
# What was measured:
# [1] = target: β-amyloid peptide 1-40 (UniProt P05067); assay: cell-based or functional assay
# [2] = target: biotinylated peptide composed of amino acids 1-16 of the Aβ peptide (UniProt P05067); assay: phage ELISA screen of colonies after biopanning, negative control
Substance,"Percent Aggregation (ThT emission at 485 nm), plus 1 µM 10D5 [1] [%]","Percent Disaggregation (ThT), plus 1 µM 10D5 [1] [%]",absorbance at 492 nm (OD) [2] [OD]
10D5 (monoclonal antibody against the N terminus of Aβ peptide),61.4,38.6,–
helper phage M13KO7,–,–,0.003 to 0.005
